Molecular target: CHD4 PHD2 finger, wild type (UniProt Q14839 446-501)
Assay: other fluorescence titration + NMR titration

Kd: 2000 µM
Binder: ARTKQTARKSTG (trimethyl-lysine at 4) [H3K4me3 peptide (12-mer histone tail peptide)]

— publication PMC2885444 (The Biochemical journal, 2009)
